For experiment [1], the target named is GST-KRIT1 (residues 170–198), wild type (human) (UniProt O00522). Briefly: SPR.
In experiment [2] the target is GST-integrin β1 fusion protein (residues 752 to 798), wild type (UniProt P05556). Briefly: SPR.

The text below walks through data of publication PMC3684052.

Chain of GST-KRIT1 (residues 170–198), wild type (human) (O00522 170-198): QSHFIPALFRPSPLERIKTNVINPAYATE
Chain of GST-integrin β1 fusion protein (residues 752 to 798), wild type (P05556 752-798): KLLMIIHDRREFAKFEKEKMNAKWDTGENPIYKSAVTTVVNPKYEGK

Regarding “ICAP1 (analyte of the surface plasmon resonance) (from UniProt O14713 1-200) (domain or fragment)”, the figures for the Kd in experiment [1] and in experiment [2] were 1.24 µM and 5 µM, respectively.
